In US20210301005A1 (Genentech, published 2021):
Where a chain is given by its changes, count along the chain named. Where two headings read alike, the source gives them in different places.

How the values were obtained:
[1] = target: T1, human TGFβ2, mature receptor-binding domain (human, UniProt P09858 303-414 (pig entry), The mature TGFβ2 is a disulfide-linked homodimer of this 112-residue chain. The 4A11 epitope spans both monomers (p-1207).); experiment: SPR
T1 construct: Peprotech; also called TGFb2
T1 sequence: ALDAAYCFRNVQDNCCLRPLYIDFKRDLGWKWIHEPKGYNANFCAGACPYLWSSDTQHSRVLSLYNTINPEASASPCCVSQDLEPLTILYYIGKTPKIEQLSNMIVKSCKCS

[2] = target: T1, human TGFβ2, mature receptor-binding …; experiment: SPR; remark: listed apart in the source
[3] = target: T1, human TGFβ2, mature receptor-binding …; experiment: BIAcore T200
[4] = target: T1, human TGFβ2, mature receptor-binding …; experiment: cell-based or functional assay
[5] = target: T1, human TGFβ2, mature receptor-binding …; experiment: Biacore SPR
[6] = target: T2, mouse TGFβ2, mature peptide (mouse, UniProt P27090 303-414); experiment: Biacore SPR
T2 construct: mature
T2 sequence (looked up): T1 sequence with S59T, R60K, K94N

[7] = target: T3, human TGFβ1, mature receptor-binding domain (human, UniProt P01137 279-390); experiment: cell-based or functional assay
T3 sequence (P01137 279-390 limits assumed): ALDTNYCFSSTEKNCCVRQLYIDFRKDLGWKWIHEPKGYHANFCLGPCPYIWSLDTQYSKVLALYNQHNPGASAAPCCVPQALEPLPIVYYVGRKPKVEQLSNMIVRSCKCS

[8] = target: T1, human TGFβ2, mature receptor-binding …; experiment: cell-based or functional assay; remark: listed apart in the source
[9] = target: T4, human TGFβ3, mature dimeric form (human, UniProt P10600 301-412); experiment: cell-based or functional assay
T4 sequence: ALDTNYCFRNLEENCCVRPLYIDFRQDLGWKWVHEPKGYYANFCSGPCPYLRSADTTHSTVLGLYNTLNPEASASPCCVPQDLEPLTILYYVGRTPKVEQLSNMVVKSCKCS

[10] = target: T3, human TGFβ1, mature receptor-binding …; experiment: cell-based or functional assay; remark: listed apart in the source
[11] = target: T1, human TGFβ2, mature receptor-binding …; experiment: cell-based or functional assay; remark: listed apart in the source
[12] = target: T4, human TGFβ3, mature dimeric form; experiment: cell-based or functional assay; remark: listed apart in the source
[13] = target: T3, human TGFβ1, mature receptor-binding …; experiment: cell-based or functional assay; remark: listed apart in the source
[14] = target: T1, human TGFβ2, mature receptor-binding …; experiment: cell-based or functional assay; remark: listed apart in the source
[15] = target: T4, human TGFβ3, mature dimeric form; experiment: cell-based or functional assay; remark: listed apart in the source
[16] = target: T1, human TGFβ2, mature receptor-binding …; experiment: cell-based or functional assay; remark: listed apart in the source
[17] = target: T2, mouse TGFβ2, mature peptide; experiment: cell-based or functional assay
[18] = target: T4, human TGFβ3, mature dimeric form; experiment: SPR
[19] = target: T4, human TGFβ3, mature dimeric form; experiment: SPR; remark: listed apart in the source
[20] = target: T1, human TGFβ2, mature receptor-binding …; experiment: BIAcore T200; remark: listed apart in the source
Protocol: (§1) For binding affinity determinations of all humanized 2A10 antibodies, Surface Plasmon Resonance (SPR) measurement with a BIAcore™-T200 instrument was used. Briefly, series S CM5 biosensor chip with protein A was first applied to capture each humanized 2A10 variant to achieve approximately 100 response units (RU) on each flow cell, following by injection of 3-fold serial dilutions of human TGFβ1, TGFβ2 or TGFβ3 (0.02 nM to 5 nM) in HBS-EP buffer (0.01M HEPES pH 7.4, 0.15M NaCl, 3 mM EDTA and 0.05% v/v surfactant P20) at 25° C. with a flow rate of 50 μl/min for kinetics measurement. Association rates (ko.) and dissociation rates (koff) were calculated using a simple one-to-one Langmuir binding model (BIAcore T200 evaluation software version 2.0) to determine the equilibrium dissociation constant (KD), which was calculated as the ratio koff/kₒₙ.

[21] = target: T4, human TGFβ3, mature dimeric form; experiment: BIAcore T200
Protocol: as §1

[22] = target: T1, human TGFβ2, mature receptor-binding …; experiment: BIAcore T200; remark: listed apart in the source
Protocol: as §1

[23] = target: T4, human TGFβ3, mature dimeric form; experiment: BIAcore T200; remark: listed apart in the source
Protocol: as §1

[24] = target: T4, human TGFβ3, mature dimeric form; experiment: cell-based or functional assay; remark: listed apart in the source
[25] = target: T3, human TGFβ1, mature receptor-binding …; experiment: cell-based or functional assay; remark: listed apart in the source
[26] = target: T1, human TGFβ2, mature receptor-binding …; experiment: cell-based or functional assay; remark: listed apart in the source
[27] = target: T4, human TGFβ3, mature dimeric form; experiment: cell-based or functional assay; remark: listed apart in the source
[28] = target: T3, human TGFβ1, mature receptor-binding …; experiment: cell-based or functional assay; remark: listed apart in the source
[29] = target: T1, human TGFβ2, mature receptor-binding …; experiment: cell-based or functional assay; remark: listed apart in the source
[30] = target: T4, human TGFβ3, mature dimeric form; experiment: cell-based or functional assay; remark: listed apart in the source
[31] = target: T3, human TGFβ1, mature receptor-binding …; experiment: BIAcore T200; humanization BIAcore study (Tables 9 and 11), bound only
[32] = target: T3, human TGFβ1, mature receptor-binding …; experiment: SPR; Table 4 screening SPR, affinity at 25 C; no blocking of TGFb1 (>500 nM at 37 C)
[33] = target: T3, human TGFβ1, mature receptor-binding …; experiment: BIAcore T200
Protocol: as §1

[34] = target: T1, human TGFβ2, mature receptor-binding …; experiment: BIAcore T200; remark: listed apart in the source
Protocol: as §1

[35] = target: T4, human TGFβ3, mature dimeric form; experiment: BIAcore T200; remark: listed apart in the source
Protocol: as §1

[36] = target: T3, human TGFβ1, mature receptor-binding …; experiment: cell-based or functional assay; remark: listed apart in the source
[37] = target: T1, human TGFβ2, mature receptor-binding …; experiment: cell-based or functional assay; remark: listed apart in the source
[38] = target: T4, human TGFβ3, mature dimeric form; experiment: cell-based or functional assay; remark: listed apart in the source

B1: 6F12 (antibody, V domains shown)
VH: QVQLKESGPGLVQPSQTLSLTCTVSGFSLTTYNVHWVRQPPGKGLEWMGLIWNTGGTRYNSALKSRLSISKDTSKSQVFLRMNSLQTEDTATYYCARDPVPNKWHFDFWGPGTMVTVSS
VL: DIQMTQSPASLSASLGETVTIECLASEDIYSNLAWYQQKPGKSPQLLIYDARSLQDGVPSRFSGSESGPQYSLEINSLQSEDAVTYFCQQHHAYPFTFGSGTKLEIK
notes: anti-TGFβ2; called rat and rabbit in different places; also called rat 6F12; r6F12
Kd [1]: < 0.01 nM | Kd [2]: < 0.001 nM | Kd [3]: ≤ 0.0005 nM | cell-based IC50 [4]: < 0.25 nM | fold potency against 1D11 [4]: ~100 fold | Kd [5]: < 0.001 nM | Kd [6]: < 0.001 nM | Blocking IC50 [7]: > 500 nM | Blocking IC50 [8]: 0.04 nM | Blocking IC50 [9]: > 500 nM | HEKBlue TGFβ blocking IC50 [10]: > 200 nM | HEKBlue TGFβ blocking IC50 [11]: 0.004 nM | HEKBlue TGFβ blocking IC50 [12]: > 200 nM | HEKBlue TGFβ blocking IC50 [13]: > 200 nM | HEKBlue TGFβ blocking IC50 [14]: 0.004 nM | HEKBlue TGFβ blocking IC50 [15]: > 200 nM | IC50 (read off the curve) [16]: ~0.03 nM | IC50 (read off the curve) [17]: ~0.06 nM

B2: 2A10 (antibody, V domains shown)
VH: EVQLVESGGGLVQPKGSLKLSCAASGFDFNSYGMSWVRQAPGKGLDLVADIVSKTYNYTTYYSDSVKDRFTISRDDSQSMVYLQMDNLKTEDTALYYCTVAPGGSFDYWGQGVMVTVSS
VL: DIVLTQSPALAVSLGQRATISCRASQSVSISRFNLMHWYQHKPGQQPKLLIYRASNLASGIPARFSGSGSGTDFTLTINPVQADDLATYYCQHSRESPWTFGGGTKLEIK
notes: anti-TGFβ3; also called rat 2A10; r2A10
Kd [18]: < 0.01 nM | Kd [2]: 0.046 nM | Kd [19]: < 0.002 nM | Kd [20]: 0.0628 nM | Kd [21]: 0.0012 nM | Kd [22]: 0.0628 nM | Kd [23]: 0.0012 nM | cell-based IC50 [24]: < 0.25 nM | Blocking IC50 [7]: > 500 nM | Blocking IC50 [8]: 193 nM | Blocking IC50 [9]: 0.02 nM | HEKBlue TGFβ blocking IC50 [25]: > 200 nM | HEKBlue TGFβ blocking IC50 [26]: 70 nM | HEKBlue TGFβ blocking IC50 [27]: 0.01 nM | HEKBlue TGFβ blocking IC50 [28]: > 200 nM | HEKBlue TGFβ blocking IC50 [29]: 70 nM | HEKBlue TGFβ blocking IC50 [30]: 0.01 nM | Kd [31]: > 5 nM | Kd [32]: 1.6 nM

B3: h2A10.v2 (antibody, human IgG1, kappa, N297G)
heavy: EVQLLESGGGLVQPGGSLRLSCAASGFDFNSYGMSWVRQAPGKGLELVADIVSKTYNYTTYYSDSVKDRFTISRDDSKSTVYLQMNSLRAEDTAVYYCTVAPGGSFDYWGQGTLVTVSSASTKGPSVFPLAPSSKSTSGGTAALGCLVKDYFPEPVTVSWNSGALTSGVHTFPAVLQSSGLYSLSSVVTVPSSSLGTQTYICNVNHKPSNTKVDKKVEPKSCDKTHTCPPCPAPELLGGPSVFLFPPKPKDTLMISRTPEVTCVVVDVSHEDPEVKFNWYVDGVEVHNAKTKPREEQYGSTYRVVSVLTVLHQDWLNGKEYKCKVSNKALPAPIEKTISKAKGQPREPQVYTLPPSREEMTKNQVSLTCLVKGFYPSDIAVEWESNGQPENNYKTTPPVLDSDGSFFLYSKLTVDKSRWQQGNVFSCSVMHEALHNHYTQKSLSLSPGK
light: DIQLTQSPSSLSASVGDRVTITCRASQSVSISRFNLMHWYQHKPGKQPKLLIYRASNLASGIPSRFSGSGSGTDFTLTISSLQPEDFATYYCQHSRESPWTFGGGTKVEIKRTVAAPSVFIFPPSDEQLKSGTASVVCLLNNFYPREAKVQWKVDNALQSGNSQESVTEQDSKDSTYSLSSTLTLSKADYEKHKVYACEVTHQGLSSPVTKSFNRGEC
notes: also called humanized 2A10 version 2
Kd [20]: 0.314 nM | Kd [21]: 0.0013 nM | Kd [33]: > 5 nM | Kd [34]: 0.314 nM | Kd [35]: 0.0013 nM | HEKBlue TGFβ blocking IC50 [25]: > 200 nM | HEKBlue TGFβ blocking IC50 [26]: > 200 nM | HEKBlue TGFβ blocking IC50 [27]: 0.01 nM | HEKBlue TGFβ blocking IC50 [36]: > 200 nM | HEKBlue TGFβ blocking IC50 [37]: > 200 nM | HEKBlue TGFβ blocking IC50 [38]: 0.01 nM
